Experimental data reported in paper PMC9482650, “Quantitative fragmentomics allow affinity mapping of interactomes” (Nature Communications, 2022).

Legend:
Assay in all cases: holdup assay
Set-up in all cases: key: below the threshold = too weak to quantify, mostly under pKd 3.1 to 4
MAGI2_5, Q86UL8 = target: MAGI2_5, Q86UL8
DLG2_2, Q15700 = target: DLG2_2, Q15700
PTPN13_1, Q12923 = target: T1, PTPN13_1, Q12923
T1 sequence (Q12923 1088-1188, limits assumed, looked up): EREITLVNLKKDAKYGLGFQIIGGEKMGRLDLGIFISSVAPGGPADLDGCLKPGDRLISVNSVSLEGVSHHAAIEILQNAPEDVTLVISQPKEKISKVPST

LNX2_2, Q8N448 = target: T2, LNX2_2, Q8N448
T2 sequence (Q8N448 334-432, limits assumed, looked up): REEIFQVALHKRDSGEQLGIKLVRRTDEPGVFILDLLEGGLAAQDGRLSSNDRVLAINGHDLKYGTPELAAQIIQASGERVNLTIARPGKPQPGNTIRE

FRMPD4, Q14CM0 = target: FRMPD4, Q14CM0
FRMPD4, Q14CM0, sequence (Q14CM0 67-160): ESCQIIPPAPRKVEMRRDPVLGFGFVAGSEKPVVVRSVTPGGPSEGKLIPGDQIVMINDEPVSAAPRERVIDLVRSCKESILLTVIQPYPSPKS

Inadl_3, Q8NI35 = target: Inadl_3, Q8NI35
Inadl_3, Q8NI35, sequence (Q8NI35 359-469): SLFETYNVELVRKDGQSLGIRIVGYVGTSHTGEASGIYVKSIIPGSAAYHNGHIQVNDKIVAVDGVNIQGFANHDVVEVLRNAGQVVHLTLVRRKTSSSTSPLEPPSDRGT

Inadl_9, Q8NI35 = target: Inadl_9, Q8NI35
Inadl_9, Q8NI35, sequence (Q8NI35 1530-1615): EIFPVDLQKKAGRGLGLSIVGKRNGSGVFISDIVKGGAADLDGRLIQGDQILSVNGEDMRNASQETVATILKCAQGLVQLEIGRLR

PDZD7_3, Q9H5P4 = target: T3, PDZD7_3, Q9H5P4
T3 sequence (Q9H5P4 857-944, limits assumed, looked up): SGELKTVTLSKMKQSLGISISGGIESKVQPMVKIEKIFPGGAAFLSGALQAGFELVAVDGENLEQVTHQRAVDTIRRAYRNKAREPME

GRIP1_5, Q9Y3R0 = target: T4, GRIP1_5, Q9Y3R0
T4 sequence (Q9Y3R0 568-668, limits assumed, looked up): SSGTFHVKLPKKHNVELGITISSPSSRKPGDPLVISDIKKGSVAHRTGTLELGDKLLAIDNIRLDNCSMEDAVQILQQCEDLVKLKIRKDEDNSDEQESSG

NHERF3_4, Q5T2W1 = target: T5, NHERF3_4, Q5T2W1
T5 sequence (Q5T2W1 373-468, limits assumed, looked up): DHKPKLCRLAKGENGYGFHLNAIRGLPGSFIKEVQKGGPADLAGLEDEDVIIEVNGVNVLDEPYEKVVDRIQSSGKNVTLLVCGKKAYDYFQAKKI

DLG1_1, Q12959 = target: DLG1_1, Q12959
LNX1_1, Q8TBB1 = target: LNX1_1, Q8TBB1
LNX1_1, Q8TBB1, sequence (Q8TBB1 261-371): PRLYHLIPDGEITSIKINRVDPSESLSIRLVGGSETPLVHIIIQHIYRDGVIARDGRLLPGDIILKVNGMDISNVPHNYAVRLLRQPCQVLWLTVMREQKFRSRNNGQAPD

Inadl_1, Q8NI35 = target: Inadl_1, Q8NI35
Inadl_1, Q8NI35, sequence (Q8NI35 113-229): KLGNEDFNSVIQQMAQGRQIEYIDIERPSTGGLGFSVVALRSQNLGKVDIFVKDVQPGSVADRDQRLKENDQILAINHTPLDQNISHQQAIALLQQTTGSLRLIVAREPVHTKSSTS

LNX1_2, Q8TBB1 = target: LNX1_2, Q8TBB1
LNX1_2, Q8TBB1, sequence (Q8TBB1 371-470): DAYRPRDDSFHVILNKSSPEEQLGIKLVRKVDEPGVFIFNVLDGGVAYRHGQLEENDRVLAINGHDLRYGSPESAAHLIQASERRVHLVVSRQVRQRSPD

LIMK2, P53671 = target: LIMK2, P53671
LIMK2, P53671, sequence (P53671 143-248): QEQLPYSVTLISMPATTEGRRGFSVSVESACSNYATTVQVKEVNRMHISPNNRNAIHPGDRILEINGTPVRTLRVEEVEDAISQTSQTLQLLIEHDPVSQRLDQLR

MPDZ_12, O75970 = target: T6, MPDZ_12, O75970
T6 sequence (O75970 1857-1958, limits assumed, looked up): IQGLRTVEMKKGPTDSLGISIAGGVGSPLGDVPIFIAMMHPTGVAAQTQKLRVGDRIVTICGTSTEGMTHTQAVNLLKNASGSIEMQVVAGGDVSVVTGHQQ

MAGI2_6, Q86UL8 = target: MAGI2_6, Q86UL8
MAGI2_6, Q86UL8, sequence (Q86UL8 1141-1229): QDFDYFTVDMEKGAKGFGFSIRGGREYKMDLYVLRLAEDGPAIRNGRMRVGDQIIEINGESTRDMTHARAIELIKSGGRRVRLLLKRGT

APBA3_1, O96018 = target: T7, APBA3_1, O96018
T7 sequence (O96018 389-490, limits assumed, looked up): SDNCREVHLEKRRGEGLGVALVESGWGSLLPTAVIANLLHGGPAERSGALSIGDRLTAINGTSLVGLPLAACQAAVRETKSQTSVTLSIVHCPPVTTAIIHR

DLG4_3, P78352 = target: DLG4_3, P78352
DLG4_3, P78352, sequence (P78352 306-403): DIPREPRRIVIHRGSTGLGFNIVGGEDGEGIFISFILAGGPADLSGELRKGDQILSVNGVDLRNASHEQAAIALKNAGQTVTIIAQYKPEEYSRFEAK

HTRA4, P83105 = target: T8, HTRA4, P83105
T8 sequence (P83105 378-476, limits assumed, looked up): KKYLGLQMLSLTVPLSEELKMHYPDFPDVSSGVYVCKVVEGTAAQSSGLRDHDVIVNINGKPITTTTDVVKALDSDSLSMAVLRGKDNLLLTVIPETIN

RAPGEF6, Q8TEU7 = target: T9, RAPGEF6, Q8TEU7
T9 sequence (Q8TEU7 525-625, limits assumed, looked up): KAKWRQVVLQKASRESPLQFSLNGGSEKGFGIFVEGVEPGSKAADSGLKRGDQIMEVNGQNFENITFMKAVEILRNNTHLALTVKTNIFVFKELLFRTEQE

DLG4_2, P78352 = target: DLG4_2, P78352
DLG4_2, P78352, sequence (P78352 155-259): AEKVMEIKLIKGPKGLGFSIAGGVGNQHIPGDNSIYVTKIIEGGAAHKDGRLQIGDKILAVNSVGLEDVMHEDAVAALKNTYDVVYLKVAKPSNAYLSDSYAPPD

APBA2_2, Q99767 = target: T10, APBA2_2, Q99767
T10 sequence (Q99767 654-744, limits assumed, looked up): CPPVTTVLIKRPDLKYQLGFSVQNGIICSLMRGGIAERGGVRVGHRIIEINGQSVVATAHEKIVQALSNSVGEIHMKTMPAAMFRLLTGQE

SHANK1, Q9Y566 = target: T11, SHANK1, Q9Y566
T11 sequence (Q9Y566 658-767, limits assumed, looked up): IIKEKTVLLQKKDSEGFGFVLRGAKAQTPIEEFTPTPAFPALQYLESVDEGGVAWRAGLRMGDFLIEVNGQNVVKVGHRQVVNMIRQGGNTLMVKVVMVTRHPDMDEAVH

AHNAK1, Q09666 = target: AHNAK1, Q09666
AHNAK1, Q09666, sequence (Q09666 4-100): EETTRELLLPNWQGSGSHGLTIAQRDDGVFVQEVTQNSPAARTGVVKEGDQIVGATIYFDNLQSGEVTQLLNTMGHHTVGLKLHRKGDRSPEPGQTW

PDZRN4_1, Q6ZMN7 = target: PDZRN4_1, Q6ZMN7
PDZRN4_1, Q6ZMN7, sequence (Q6ZMN7 213-318): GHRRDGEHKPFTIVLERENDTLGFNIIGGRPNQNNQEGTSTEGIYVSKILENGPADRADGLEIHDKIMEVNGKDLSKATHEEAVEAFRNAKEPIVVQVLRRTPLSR

PTPN3, P26045 = target: PTPN3, P26045
PTPN3, P26045, sequence (P26045 505-587): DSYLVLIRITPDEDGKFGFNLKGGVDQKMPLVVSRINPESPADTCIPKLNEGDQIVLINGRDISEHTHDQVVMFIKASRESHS

[1] = plain residues with an end cap or a label only (N-terminal biotin on a linker: ahx)
[2] = plain residues with an end cap or a label only (N-terminal biotin on a linker: ado-ado)

DLG2_2, Q15700, sequence (Q15700 189-283): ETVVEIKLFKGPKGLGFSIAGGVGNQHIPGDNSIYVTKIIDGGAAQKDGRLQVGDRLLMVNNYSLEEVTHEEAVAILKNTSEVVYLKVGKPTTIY
MAGI2_5, Q86UL8, sequence (Q86UL8 915-1017): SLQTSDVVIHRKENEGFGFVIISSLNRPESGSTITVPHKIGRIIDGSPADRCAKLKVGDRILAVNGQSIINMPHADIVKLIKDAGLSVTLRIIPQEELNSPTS

Q: What does the source list for TQKFRASTAL [FRMPD1, Q5SYB0]?
A: pKd (MAGI2_5, Q86UL8; [1]): 3.59; pKd (DLG2_2, Q15700; [1]): 4.17; pKd (PTPN13_1, Q12923; [1]): below the threshold; pKd (LNX2_2, Q8N448; [1]): below the threshold; pKd (FRMPD4, Q14CM0; [1]): 3.73; pKd (Inadl_3, Q8NI35; [1]): below the threshold; pKd (Inadl_9, Q8NI35; [1]): below the threshold; pKd (PDZD7_3, Q9H5P4; [1]): 3.92; pKd (GRIP1_5, Q9Y3R0; [1]): below the threshold; pKd (NHERF3_4, Q5T2W1; [1]): 4.54; pKd (DLG1_1, Q12959; [1]): below the threshold; pKd (LNX1_1, Q8TBB1; [1]): below the threshold; pKd (Inadl_1, Q8NI35; [1]): below the threshold; pKd (LNX1_2, Q8TBB1; [1]): below the threshold; pKd (LIMK2, P53671; [1]): below the threshold; pKd (MPDZ_12, O75970; [1]): below the threshold; pKd (MAGI2_6, Q86UL8; [1]): below the threshold; pKd (APBA3_1, O96018; [1]): below the threshold; pKd (DLG4_3, P78352; [1]): 3.78; pKd (HTRA4, P83105; [1]): below the threshold; pKd (RAPGEF6, Q8TEU7; [1]): below the threshold; pKd (DLG4_2, P78352; [1]): 3.55; pKd (APBA2_2, Q99767; [1]): below the threshold; pKd (SHANK1, Q9Y566; [1]): 4.62; pKd (AHNAK1, Q09666; [1]): below the threshold; pKd (PDZRN4_1, Q6ZMN7; [1]): 4.17; pKd (PTPN3, P26045; [1]): 4.45

Q: For ARGPPRESEV [FAM110D, Q8TAY7], which pKd (MAGI2_5, Q86UL8; [2]) is on record?
A: 3.9

Q: And the pKd (DLG2_2, Q15700; [2])?
A: 5.3

Q: And the pKd (PTPN13_1, Q12923; [2])?
A: below the threshold

Q: And the pKd (LNX2_2, Q8N448; [2])?
A: below the threshold

Q: And the pKd (FRMPD4, Q14CM0; [2])?
A: below the threshold

Q: What about the pKd (Inadl_3, Q8NI35; [2]) of the same binder?
A: below the threshold

Q: What about the pKd (Inadl_9, Q8NI35; [2]) of the same binder?
A: 3.53

Q: What about the pKd (PDZD7_3, Q9H5P4; [2]) of the same binder?
A: 4.47

Q: What about the pKd (GRIP1_5, Q9Y3R0; [2]) of the same binder?
A: below the threshold

Q: What about the pKd (NHERF3_4, Q5T2W1; [2]) of the same binder?
A: below the threshold

Q: And the pKd (DLG1_1, Q12959; [2])?
A: 4.7

Q: What about the pKd (LNX1_1, Q8TBB1; [2]) of the same binder?
A: 3.78

Q: What about the pKd (Inadl_1, Q8NI35; [2]) of the same binder?
A: below the threshold

Q: And the pKd (LNX1_2, Q8TBB1; [2])?
A: below the threshold

Q: What about the pKd (LIMK2, P53671; [2]) of the same binder?
A: below the threshold

Q: What about the pKd (MPDZ_12, O75970; [2]) of the same binder?
A: below the threshold

Q: What about the pKd (MAGI2_6, Q86UL8; [2]) of the same binder?
A: 4.3

Q: What about the pKd (APBA3_1, O96018; [2]) of the same binder?
A: below the threshold

Q: What about the pKd (DLG4_3, P78352; [2]) of the same binder?
A: 4.42

Q: What about the pKd (HTRA4, P83105; [2]) of the same binder?
A: 3.87

Q: What about the pKd (RAPGEF6, Q8TEU7; [2]) of the same binder?
A: below the threshold

Q: What about the pKd (DLG4_2, P78352; [2]) of the same binder?
A: 5.63

Q: And the pKd (APBA2_2, Q99767; [2])?
A: below the threshold

Q: What about the pKd (SHANK1, Q9Y566; [2]) of the same binder?
A: below the threshold

Q: What about the pKd (AHNAK1, Q09666; [2]) of the same binder?
A: below the threshold

Q: What about the pKd (PDZRN4_1, Q6ZMN7; [2]) of the same binder?
A: 4.4

Q: What about the pKd (PTPN3, P26045; [2]) of the same binder?
A: 4.94

Q: With PTPDLPQTRV [KLHDC7A, Q5VTJ3] as the binder, how does the pKd (MAGI2_5, Q86UL8; [2]) read?
A: below the threshold

Q: And the pKd (DLG2_2, Q15700; [2])?
A: below the threshold

Q: And the pKd (PTPN13_1, Q12923; [2])?
A: below the threshold

Q: And the pKd (LNX2_2, Q8N448; [2])?
A: below the threshold

Q: And the pKd (FRMPD4, Q14CM0; [2])?
A: 3.48

Q: What about the pKd (Inadl_3, Q8NI35; [2]) of the same binder?
A: below the threshold

Q: What about the pKd (Inadl_9, Q8NI35; [2]) of the same binder?
A: 3.51

Q: And the pKd (PDZD7_3, Q9H5P4; [2])?
A: 5.04

Q: And the pKd (GRIP1_5, Q9Y3R0; [2])?
A: below the threshold

Q: What about the pKd (NHERF3_4, Q5T2W1; [2]) of the same binder?
A: below the threshold

Q: What about the pKd (DLG1_1, Q12959; [2]) of the same binder?
A: below the threshold

Q: And the pKd (LNX1_1, Q8TBB1; [2])?
A: 3.89

Q: And the pKd (Inadl_1, Q8NI35; [2])?
A: below the threshold

Q: What about the pKd (LNX1_2, Q8TBB1; [2]) of the same binder?
A: below the threshold

Q: And the pKd (LIMK2, P53671; [2])?
A: below the threshold

Q: What about the pKd (MPDZ_12, O75970; [2]) of the same binder?
A: below the threshold

Q: What about the pKd (MAGI2_6, Q86UL8; [2]) of the same binder?
A: 3.61

Q: What about the pKd (APBA3_1, O96018; [2]) of the same binder?
A: below the threshold

Q: What about the pKd (DLG4_3, P78352; [2]) of the same binder?
A: 3.72

Q: And the pKd (HTRA4, P83105; [2])?
A: 3.87

Q: What about the pKd (RAPGEF6, Q8TEU7; [2]) of the same binder?
A: below the threshold

Q: What about the pKd (DLG4_2, P78352; [2]) of the same binder?
A: 3.5

Q: And the pKd (APBA2_2, Q99767; [2])?
A: below the threshold

Q: What about the pKd (SHANK1, Q9Y566; [2]) of the same binder?
A: 4.5

Q: What about the pKd (AHNAK1, Q09666; [2]) of the same binder?
A: below the threshold

Q: What about the pKd (PDZRN4_1, Q6ZMN7; [2]) of the same binder?
A: 3.59

Q: And the pKd (PTPN3, P26045; [2])?
A: below the threshold
